Here are results for 40 sequences from the nanobody polyreactivity screen of Harvey et al. (2022).

A short description of the data set: yeast display, Sf9 membrane polyspecificity reagent, FACS + sequencing; frameworks hold sequencing errors. Summed up:
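Nanobodies came from a synthetic yeast display library in Saccharomyces cerevisiae BJ5465, induced with galactose for 36–48 hours and stained for 1 hour at 4 °C with 10% biotinylated, detergent-solubilized Sf9 membrane reagent. Cells were enriched on streptavidin microbeads and then FACS-sorted, with low and high (top ~1%) gates set on anti-HA fluorescence for expression and streptavidin fluorescence for reagent binding. Each polyreactivity label reflects the gate a clone came from. Genes were amplified by colony PCR, sequenced by MiSeq 2 × 250 and filtered by CDR length.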
Take “QVQLVESGGGLVQAGGSLRLSCAASGITFSDYAMGWYRQAPGKEWELVAAISARGGSTYYADSVKGRFTISRDNAKNTVYLQMNSLKPEDTAVYYCAADKRTPYYSRAGMDYWGQGTQVTVSS”: the “polyreactivity (PSR sort gate)” value is “low polyreactivity”.
For the sequence “QVQLVESGGGLVQAGGSLRLSCAASGITFSGNAMGWYRQAPGKERELVAAITWRGDNTYYADSVKGRFTISRDNAKNTVYLQMNSLKPEDTAVYSCAAKSPLFGLTSYPGPDDSWGQGTQVTVSS”, the “polyreactivity (PSR sort gate)” value is “low polyreactivity”.
As for “QVQLVESGGGLVQAGGSLRLSCAASGITFSGNTMGWYRQAPGKERELVAAISSGGSTYYADSVKGRFTISRDNAKNTVLLQMNSLKPEDTAVYYCNADIYYAPYDYWGQGTQVTVSS”, the “polyreactivity (PSR sort gate)” value is “low polyreactivity”.
“QVQLVESGGGLVQAGGSLRLSCAASGITFSNYSMGWYRQAPGKERELVAAISKRGGSTYYADSVKGRFTISRDNAKNTVYLQMNSLKPEDTAVYYCAAAGVRVYVRSGLDYWGQGTQVTVSS”: the “polyreactivity (PSR sort gate)” value is recorded as “high polyreactivity”.
In the case of “QVQLVESGGGLVQAGGSLRLSCAASGITFSQYAMGWYRQAPGTERELVAAISGSGGDTYYADSVKGRFTISRDNAKNTVYLQMNSLKPEDTAVYYCNADYESVYYEDYDYWGQGTQVTVSS”, the “polyreactivity (PSR sort gate)” value is “low polyreactivity”.
To “QVQLVESGGGLVQAGGSLRLSCAASGITFSRNAMGWYRQAPGKERELVAAINWTGGNTYYADSVKGRFTISRDNAKNTVYLQMNSLKPEDTAVYYCAADRRWFVWGLGYWGQGTQVTVSS” belongs “low polyreactivity”; to “QVQLVESGGGLVQAGGSLRLSCAASGITFSRNAMGWYRQAPGNERELVATITSGCSTNYADSVKGRFTISRDNAKNNVYLQMNSLKPEDTAIYYCNAVWNTFISGRSYDYWGQGTQVTVSS”, “low polyreactivity”.
To “QVQLVESGGGLVQAGGSLRLSCAASGITFSRNARGGERQAPGQERELVATITSGGSTNYADSVKGRFTISRDNAKNTVYLQMNSLKPEDTAVFYCNAVWNTFISGRSYDYWGQGTQVTVSS” belongs “low polyreactivity”.
For “QVQLVESGGGLVQAGGSLRLSCAASGITFSRNVMGWSRQAPGKERELVAAISRSGGRTYYADSVKGRFTISRDNAMYTVYLQMNRLKPEDTAVYYCNRDIGGTSVLDDYWGQGNQVTVSS”, the “polyreactivity (PSR sort gate)” value is listed as “low polyreactivity”.
In the case of “QVQLVESGGGLVQAGGSLRLSCAASGITFSSYAMGWYRQAPGTEREFVARISTDADTYYADSVKGRFTISRDNAKHTVLLQMNSLKPEDTAVYYCAAEDYRDFDYWGHGTQVTVSS”, the “polyreactivity (PSR sort gate)” value was “low polyreactivity”.
For “QVQLVESGGGLVQAGGSLRLSCAASGITFSYNAMGWSRQAPGKERELVAAISSNSDSTYYADSVKGRFTISRDNAKNTVYLQMNSLKPEDTAVYYCAADSPDDPDYSGFYYWGQGSQVTVSS” the value was “low polyreactivity”; for “QVQLVESGGGLVQAGGSLRLSCAASGITFSYNAMGWYRQAPGKERELVAAISDIGGSTYYADSVKGRFTISRDNAKITVYLQMNSLKPEDTAVYYCAADEYYQDEYDYWGQGTQVTVSS”, “low polyreactivity”; for “QVQLVESGGGLVQAGGSLRLSCAASGITFSYNAMGWYRQAPGKERELVAAISSNSDSTYYADSVKGRFTISRDYAKNTVYLQMNRLKPEDTAVYYCAADTPDAPDYSGFYYWGQGTQVTVSS”, “low polyreactivity”.
For “QVQLVESGGGLVQAGGSLRLSCAASGITFSYYAMGWYRPAPGKERELVAAINSGGGSTYYADSVKGRFTISRDNAKNTVFLQMNSLKPDDTAVYYCAARYRSRYEYYYDRDYWGQGTQVSVSS” the value was “low polyreactivity”; for “QVQLVESGGGLVQAGGSLRLSCAASGITFSYYAMGWYRQAPGKERELVAAINGGGSRTYYADSVKGRFTISRDNAKNTVYLQMNSLKPEDTAVYYCAAYSGQARGYDYWGQGTQVTVSS”, “high polyreactivity”; for “QVQLVESGGGLVQAGGSLRLSCAASGITFTFNAMGWYRQAPGKERELVAAITWSGGSTFYADSVKGRFTFSRDNAKNTVYLQMNSLKPEDTAVYYCARDTELYVRWLDYWVQGTQVTVSS”, “low polyreactivity”.
As for “QVQLVESGGGLVQAGGSLRLSCAASGITFTPNAMGWYRQAPGKEREFVAAITYSGGSTYYADSVKGRFTISRDNAKNTVYLQMNSLKPEDTAVYYCAAVYYLLYYEAYYYWGQGTQVTVSS”, the “polyreactivity (PSR sort gate)” value is “low polyreactivity”.
For “QVQLVESGGGLVQAGGSLRLSCAASGITFTPYAMGWYRQAPGKERELVAAITSGGSTNYADSVKGRFTISRDNAKNTVYLQMNSLKPEDTAVYYCAAGRWPAPWYTRNYWGQGTQVTVSS” the value was “low polyreactivity”.
For “QVQLVESGGGLVQAGGSLRLSCAASGITFTRNVMGWYRQAPGKERELVAAISGSGGSTYYADSVKGRFTISRDNEKNTVYLQMNSLKTEDTAVYYCAARSRGGRRYDYWGQGTQVTVSS” the value was “high polyreactivity”.
To “QVQLVESGGGLVQAGGSLRLSCAASGITFTRYAMGWYRQAPGKERELVAAISSGGRTNYADSVKGRFTISRDNAKNTVYLQMNSLKPEDTGVYYCNAAGHRWDPRYHYWGQGTQVTVSS” belongs “high polyreactivity”; to “QVQLVESGGGLVQAGGSLRLSCAASGITFTSNTLGWYRQAPGKERELVAAISKSGGSTYYADSVKGRFTISRDNAKNTVYLQMNSLKPEDTAVYYCAKDSDYYRRDVTVDYWGQGTQVTVSS”, “low polyreactivity”; to “QVQLVESGGGLVQAGGSLRLSCAASGITFTSNTMGWYRQAPGKERELVAAISKSGGSTYYADSVKGRFTISRDNEKNTVYLQMNSLKPEDTAVYYCNTVSFYDPFGAYGYWGQGTQVTVSS”, “high polyreactivity”.
Turning to “QVQLVESGGGLVQAGGSLRLSCAASGITFTSYAMGWYRQAPGKERELVAAISAGGGRTYYADSVKGRFTISRDNAKNTVYLQMNSLKPEDTAVYYCAVKYPELRTWGYYYWGQGTQVTVSS”, the “polyreactivity (PSR sort gate)” value is recorded as “high polyreactivity”.
“QVQLVESGGGLVQAGGSLRLSCAASGITFTSYVMGWYRQAPGKERELVAAISRSGGSSTYYADSVKGRFTISRDNAKNTVYLQMNSLKPEDTAVYYCAADSPYTGGANVYWGQGTQVTVSS”: the “polyreactivity (PSR sort gate)” value is given as “high polyreactivity”.
Consider “QVQLVESGGGLVQAGGSLRLSCAASGITFTVYAMGWYRQAPGKERELVAAITSTGSTNYAHSVKGRFTISRDNAKNTVYLLMNSLKPEDTAVYYCAADRQITVYAYDYWGQGTQVTVSS”, for which the “polyreactivity (PSR sort gate)” value is recorded as “low polyreactivity”.
For “QVQLVESGGGLVQAGGSLRLSCAASGITFTYYAMGWYRQAPGKERELVAAITWRGGSTYYADSVKGRFTISRDNAKNTVYLQMNSLKPEDTAVYYCAADVYVGPYHYEYWGQGTQVTVSS” the value was “high polyreactivity”; for “QVQLVESGGGLVQAGGSLRLSCAASGITFVGNAMGWSRQAPGKERELVAAMSSSGASTYYADSVKGRFTISRDYAKNTVYLQMNSLKPEDTAVYYCNAGWGVVIRRYPTYDYWGQGTQVTVSS”, “high polyreactivity”; for “QVQLVESGGGLVQAGGSLRLSCAASGITFVHNVMGWYRQAPGKERELVAAINSGGRTYYADSVKGRFTISRDNAKNTVYLQMNSLKPEDTAVYYCAALGDKRGGGNYWGQGTQVTVSS”, “high polyreactivity”.
“QVQLVESGGGLVQAGGSLRLSCAASGITFVLNARGWYRQAPGKERELVARISWSTGSTYYADSVKGRFTISRDNAKNTVYLQMNSLKPEDTAVYYCAVDYNYQSLYVVVEGEYWGQGTQVTVSS”: the “polyreactivity (PSR sort gate)” value is “low polyreactivity”.
To “QVQLVESGGGLVQAGGSLRLSCAASGITFVLYAMGWYRQAPGKERELVAANSSSGGRTYYADSVKGRFTISRDYAKNTVYLQMNSLKPEDTAVYYCAKDTYGFAANRPAGDGYWGQGTQVTVSS” belongs “high polyreactivity”.
For “QVQLVESGGGLVQAGGSLRLSCAASGITFVNNSRGCYRQAPVKEREFVAAISQGGGSTYYADSVKGRFTISRDNAKYTVYLQMNSLKPEDTAVYYCAAEIPRWWRFGYWGQGTQVTVSS” the value was “low polyreactivity”.
With “QVQLVESGGGLVQAGGSLRLSCAASGITFVPNAMGWYRQAPGKERELVAAITGNGGRTYYADSVKGRFTISRDNAKNTVYLQMNSLKPEDTAVYYCNGRKLYWAYTLSKYDYWGQGTQLTVSS”, the “polyreactivity (PSR sort gate)” value is “high polyreactivity”.
As for “QVQLVESGGGLVQAGGSLRLSCAASGITFVQNVMGWYRQAPGKEREFVAGINYSGGSTYYADSVKGRFTISRDNAKNTVYLQMNSLKPEDTAVYYCAADYDRYTYAFVYRYRRMYYWGQGTQVTVSS”, the “polyreactivity (PSR sort gate)” value is on record as “low polyreactivity”.
For “QVQLVESGGGLVQAGGSLRLSCAASGITFVQYAMGWYRQAPGKERELVAAIRRGGSTSYADSVKGRFTISRDNAKNTVYLQMNSLKPEDTAVYYCARRYDWPITPLDVEYWGQGTQVTVSS”, the “polyreactivity (PSR sort gate)” value is recorded as “low polyreactivity”.
Regarding “QVQLVESGGGLVQAGGSLRLSCAASGITFVRNAMGWYRQAPGKEREFVAAISWSGGSTYYADSVKGRFTISRDNAKNTVYLQMNSLKPEDTAVYYCAAAYPRVTYKYGYYWGQGTQVTVSS”, the “polyreactivity (PSR sort gate)” value was “high polyreactivity”.
To “QVQLVESGGGLVQAGGSLRLSCAASGITFVRYAMGWYRQAPGKERELVAVISRGGITNYADSVKGRFTISRDNAKNSVYLQMNSLKAEDTAVYYCAVRVRSNVRTYDYWGQGTQVTVSS” belongs “high polyreactivity”; to “QVQLVESGGGLVQAGGSLRLSCAASGITFVRYTMGWYRQAPGKEWELVATITLSGGRTYYADSVQGRFTISRDNAKNTVSLQMTSLKPEDTAVYYCAASSRSRWSGYRYDYWGQGTQVTVSS”, “high polyreactivity”; to “QVQLVESGGGLVQAGGSLRLSCAASGITFVSNGMGWYRTAPGKERELVAAITRSGGSTYYADSVKGRFTISRDNAKNTVYLQMNSLKPEDTAVYYCNARTSRYRRGGDSWGQGTQVTVSS”, “high polyreactivity”.
For “QVQLVESGGGLVQAGGSLRLSCAASGITFVTYAMGWYRQAPGKERELVAAITIGGRTNYADSVKGRFTISRDNAKNTVYLQMNSLKPEDTAVYYCNAAPVYDVTRLFYDDMGYWGQGTQVTVSS” the value was “low polyreactivity”; for “QVQLVESGGGLVQAGGSLRLSCAASGITFVWNAMGWYRQAPGKERELVATISRGGVRTYYADSVKGRFTISRDNAKNTVYLQMNSLKPEDTAVYYCNKRYWYPSSLHWTSFRGYDYWGQGTQVTVSS”, “low polyreactivity”.
